US20150038430A1 (published 2015)
Bridge positions count the residues as written; N and C are the ends.

Experiments:
Assay in all cases: MS-based binding affinity
Bcl-2 = target: Bcl-2
Mcl-1 = target: Mcl-1
Bcl-xL = Bcl-xL (UniProt Q07817 1-212)
Chain of Bcl-xL (Q07817 1-212): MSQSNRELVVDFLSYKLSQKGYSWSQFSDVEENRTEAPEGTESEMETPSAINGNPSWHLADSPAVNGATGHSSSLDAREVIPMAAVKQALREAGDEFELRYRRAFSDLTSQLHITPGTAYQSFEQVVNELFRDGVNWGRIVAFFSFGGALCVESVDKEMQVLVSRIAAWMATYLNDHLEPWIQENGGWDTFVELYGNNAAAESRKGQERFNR

Kd (Bcl-2) [nM] | Kd (Mcl-1) [nM] | Kd (Bcl-xL) [nM] | Binder
< 100 | < 100 | – | Ac-IWIAQELRXIGDXFNAYYARR-NH2 (staple 9-13; not fully specified (residues 9, 13); printed as Ac-IWIAQELR$IGD$FNAYYARR-NH2) [SP-4 BIM Stapled]
– | – | < 100 | Ac-IWIAQELRXIGDXFNAYYARR-NH2 (staple 9-13; not fully specified (residues 9, 13); printed as Ac-IWIAQELR$IGD$FNAYYARR-NH2) [SP-4 (BIM-BH3 peptidomimetic macrocycle, Ac-IWIAQELR$IGD$FNAYYARR-NH2)]
